Reference: patent US20140378374A1, “METHODS OF TREATMENT” (GlaxoSmithKline Intellectual Property (No.2) Limited, priority 2013, published 2014)

Experiment: Phase 1 single-dose (30 mg subcutaneous) pharmacokinetics and safety study in T2DM with normal or varying degrees of renal impairment
Assay type: in vivo, human
Conditions: for AUC Ratio / Cmax Ratio: single 30 mg dose
Procedure: A Phase 1, open-label, nonrandomized study evaluated the pharmacokinetics of a single 30 mg subcutaneous dose of albiglutide in subjects with T2DM and normal or varying degrees of renal impairment. Eligible subjects were men and women from 30 to 75 years of age (inclusive) with T2DM and HbA1c between ≧6.0% and ≦10.5%. […] Participants on hemodialysis were on stable treatment for at least 3 months before screening and had serum albumin ≧[…] and hemoglobin ≧8 g/dL.
Venous blood samples for determination of albiglutide were drawn on Day 1 prior to dosing and 6 hours after dosing and on Days 2, 3, 5, 10, 14, 21, 29, and 42 after administration of albiglutide (30 mg subcutaneous). In subjects undergoing hemodialysis, Day 1 was planned to be the day before a scheduled hemodialysis day (Day 2). Following blood sampling on Day 1 (before dosing and 6 hours after dosing) blood samples were taken before and after each dialysis procedure over the next 7 weeks. For all subjects, each blood sample was about 3 mL and drawn into an EDTA collection tube, immediately placed on crushed ice and water, and centrifuged for 10 minutes at 1,500 g at 4° C. Approximately 1 mL of plasma was transferred to a sterile 1.8-mL tube (Nunc® CryoTube®, Sigma-Aldrich) and stored at −70° C. until assaying.
Albiglutide PK samples collected in participants undergoing hemodialysis also were analyzed to assess predialysis and postdialysis changes in albumin concentrations.
Plasma samples were analyzed for albiglutide by using a validated enzyme-linked immunosorbent assay (ELISA) and were diluted 100-fold with sample buffer before analysis. Albiglutide was captured using a rabbit anti-human GLP-1 (7-36) amide and detected using a rabbit anti-HSA conjugated to biotin. ELISA experiments were performed using the Furoninc® 96 well plate (Nunc, cat. #437796) with the following steps. 1) […], antibody coating solution of 5.0 μg/mL anti-GLP-1 (7-36) Amide (human) IgG (Peninsula Laboratories, cat. # T-4111) in 50 mM sodium carbonate-bicarbonate buffer pH 9.4 was added to each well, sealed with aseptic sealing tape and incubated for 24 hours (±12 hours) at nominally 4° C. The microtiter plate was washed 5 times with […] wash buffer (10 mM Sodium Phosphate, 150 mM NaCl, 0.05% Tween 20, pH 7.5) using plate washer; 2) […] blocking buffer of SuperBlock in PBS (SuperBlock (Pierce, cat. #37515) in PBS, 5.0% Rabbit Plasma) was added to each well, sealed and incubated with constant shaking for approximately 1.5 hour (±30 minutes) at ambient room temperature and the microtiter plate washed; 3) 100 mL of either standards, quality controls (QCs) or samples were added per well, sealed, incubated and washed; 4) 100 mL of Detection Antibody solution of Biotin Labelled Rabbit polyclonal to Human Serum Albumin (NOVUS Biologicals, cat. # NB 100-1674) was added per well, sealed, incubated and washed; 5) 100 mL of Reporter Tag solution (Streptavidin-HRPO Conjugate, Caltag, cat. # SA1007) was added per well, sealed, incubated and washed; 6) 100 mL of Development Substrate Pico (SuperSignal ELISA, Pierce, cat. #37070) was added, incubated and the plate read using plate reader (Wallac 1420 Victor Multilabel Counter, Perkin Elmer Life Sciences, Boston, Mass.). Sample concentrations were determined by interpolation from the standard curve, which was fitted using a weighted (1/x), 4-parameter logistic equation. The validated range of this assay (based on 10 μL of human plasma) is 50 ng/mL to 1,500 ng/mL.
During the single dose study and 3 of the phase 3 trials (Harmony 2, 4 and 5), the assay process was modified from manual pipetting of samples to robotic pipetting.
Pharmacokinetic calculations were based on actual sampling collection times. All statistical analyses of pharmacokinetic parameters were performed using SAS Version 9.1 or later (SAS Institute, Inc., Cary, N.C.). […]

## Albiglutide: recombinant fusion protein of 2 copies of modified human GLP-1 (fragment 7-36(A8G)) genetically fused in series to recombinant human serum albumin
Hemodialysis (n = 10)
  Any event: 8 (80) n (%)
  Dizziness: 2 (20) n (%)
  Fatigue: 2 (20) n (%)
  Headache: 3 (30) n (%)
  Hypoglycemia, Documented Symptomatic: 1 (10) n (%)
  Nausea: 5 (50) n (%)
  Total no. of events: 38 n
  Vomiting: 5 (50) n (%)
Hemodialysis:Normal
  AUC Ratio: 0.99
  Cmax Ratio: 1.11
Hemodialysis:Normal, listed as albiglutide
  AUC Ratio: 0.99 (0.63, 1.57)
Moderate (n = 11)
  Any event: 3 (27.3) n (%)
  Dizziness: 0 n (%)
  Fatigue: 0 n (%)
  Headache: 0 n (%)
  Hypoglycemia, Documented Symptomatic: 0 n (%)
  Nausea: 0 n (%)
  Total no. of events: 4 n
  Vomiting: 0 n (%)
Moderate:Normal
  AUC Ratio: 1.32
  Cmax Ratio: 1.21
Moderate:Normal, listed as albiglutide
  AUC Ratio: 1.32 (0.96, 1.80)
Normal (n = 10)
  Any event: 8 (80) n (%)
  Dizziness: 0 n (%)
  Fatigue: 0 n (%)
  Headache: 0 n (%)
  Hypoglycemia, Documented Symptomatic: 0 n (%)
  Nausea: 0 n (%)
  Total no. of events: 8 n
  Vomiting: 0 n (%)
Severe (n = 10)
  Any event: 4 (40) n (%)
  Dizziness: 0 n (%)
  Fatigue: 0 n (%)
  Headache: 1 (10) n (%)
  Hypoglycemia, Documented Symptomatic: 2 (20) n (%)
  Nausea: 0 n (%)
  Total no. of events: 8 n
  Vomiting: 0 n (%)
Severe:Normal
  AUC Ratio: 1.39
  Cmax Ratio: 1.23
Severe:Normal, listed as albiglutide
  AUC Ratio: 1.39 (1.03, 1.89)
Hemodialysis group, insulin-treated subject
  subjects with a hypoglycemic SAE: One
Participants with impaired renal function
  half-life, geometric mean: 141 to 145 h
Participants with normal renal function
  half-life, geometric mean: 122 h
Patients with severe renal impairment
  observed increase in AUC: 30 to 40%
Regardless of the level of renal impairment
  median time of peak concentrations (Tmax): 88 to 96 h
